Earlier results as cited in article PMC6272133.

Target: LLT1 (Homo sapiens) (UniProt Q9UHP7)
Assay: SPR

Sequence of UniProt Q9UHP7 (Q9UHP7 60-191): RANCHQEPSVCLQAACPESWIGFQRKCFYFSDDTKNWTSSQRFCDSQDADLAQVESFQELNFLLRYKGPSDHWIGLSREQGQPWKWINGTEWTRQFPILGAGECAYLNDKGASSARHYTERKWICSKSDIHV

- Kd: 48 µM
Substance: NKRP1A ECD (from UniProt Q12918)
